Measurements taken from patent publication US20230190868A1 (NATIONAL UNIVERSITY OF SINGAPORE, published 2023).

Molecular target: T1, cell-surface GRP78 (csGRP78) on mouse alveolar macrophages (primary AMs; MH-S cells) (mouse, UniProt P20029 20-655)
T1 construct: whole, on cells; Endogenous protein on mouse cells; the species follows from the cells used; also called Glucose-Regulated Protein 78 kDa
Experiment: confocal immunofluorescence on non-permeabilized primary alveolar macrophages, 1 µM rISM1
Procedure: Cell-surface GRP78 (csGRP78) has been previously detected on mouse peritoneal macrophages (Misra, Gonzalez-Gronow et al., 2005) and human monocytes (Lu, Lai et al., 2010). Primary AMs were treated with recombinant ISM1 (rISM1) to determine if csGRP78 is present and serves as an ISM1 receptor on AMs. It was observed that rISM1 binds to csGRP78 on non-permeabilized AMs (FIG. 6C) and co-localized with GRP78 intracellularly (FIG. 6D), leading to AM apoptosis (FIG. 2K and FIG. 6E). Similarly, rISM1 induced apoptosis in immortalized mouse AM cells (MH-S) upon thapsigargin (TG) pretreatment (FIG. 6F), an ER stress inducer known to promote GRP78 translocation to the cell surface (Li, Ni et al., 2008). […] Increased AMs in Ism1^{Δ/Δ} lungs contributed towards protease-antiprotease imbalance, thus leading to spontaneous COPD in Ism1^{Δ/Δ} mice under ambient air.
(FIG. 6C). […] In FIG. 6C, representative confocal images of primary AMs for rISM1 (red) and GRP78 (green) co-localization after 1 µM rISM1 treatment for 1 hour are shown (Nuclei were stained with DAPI (blue)). Further, mouse AM cell line MH-S cells undergo ISM1 induced apoptosis when the cells were pre-treated with thapsigargin (TG), which induce ER stress and upregulate csGRP78. Denatured ISM1 (boiled) lost this pro-apoptotic function, indicating this pro-apoptotic activity is a function of the ISM1 protein. […]

T1 sequence (P20029 20-655): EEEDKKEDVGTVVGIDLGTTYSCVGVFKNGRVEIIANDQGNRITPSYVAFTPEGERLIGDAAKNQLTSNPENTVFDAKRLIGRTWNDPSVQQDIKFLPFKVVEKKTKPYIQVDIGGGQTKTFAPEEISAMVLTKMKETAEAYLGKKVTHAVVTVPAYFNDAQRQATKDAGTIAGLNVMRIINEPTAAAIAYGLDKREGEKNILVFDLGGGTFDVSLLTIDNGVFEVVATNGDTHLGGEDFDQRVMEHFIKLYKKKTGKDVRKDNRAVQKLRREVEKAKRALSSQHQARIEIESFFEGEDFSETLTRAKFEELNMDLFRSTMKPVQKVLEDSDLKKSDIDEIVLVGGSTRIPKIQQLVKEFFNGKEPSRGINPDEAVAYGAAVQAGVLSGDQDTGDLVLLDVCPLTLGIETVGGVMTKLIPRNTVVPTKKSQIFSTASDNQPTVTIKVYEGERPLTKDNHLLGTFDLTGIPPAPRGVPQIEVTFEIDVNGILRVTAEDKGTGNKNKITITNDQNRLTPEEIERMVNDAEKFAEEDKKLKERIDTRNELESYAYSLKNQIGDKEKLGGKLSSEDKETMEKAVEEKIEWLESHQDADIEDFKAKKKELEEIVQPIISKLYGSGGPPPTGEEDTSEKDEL

B1: recombinant ISM1 (rISM1), mouse mature form without signal peptide, 6xHis-tagged, expressed in E. coli (vector pET-M) (ligand)
chain: SDRQDAAAGNVSGSQLQNNLNLESDSTSETSFPLSKEAPEEHQVVHQPFPRQRFPPETGHPSLQRDGPRSFLLDLPNFPDLSKADINGQNPNIQVTIEVVDGPDSEAEKDQHPENKPSWSLPAPDWRAWWQRSLSLARTNSGDQDDKYDSTSDDSNFLSVPRGWDRPAPGHRTFETKEQPEYDSTDGEGDWSLWSVCSVTCGNGNQKRTRSCGYACIATESRTCDRPNCPGIEDTFRTAATEVSLLAGSEEFNATKLFEVDMDSCERWMSCKSEFLKKYMHKVINDLPSCPCSYPTEVAYSTADIFDRIKRKDFRWKDASGPKEKLEIYKPTARYCIRSMLSLESTTLAAQHCCYGDNMQLITRGKGAGTPNLISTEFSAELHYKVDVLPWIICKGDWSRYNEARPPNNGQKCTESPSDEDYIKQFQEAREYLEHHHHHH
notes: also called mouse rISM1
B1: binds.
